Reference: paper PMC6232118

Key:
Assay in all cases: EMSA
Details in all cases: pH 7.9, temperature not given, scale: slope of unbound DNA vs protein
[1] = tested on: FlhD (E. coli);FlhC (E. coli) (Escherichia coli;Escherichia coli)
[2] = tested on: FlhD (E. coli);FlhC (S. enterica) (Escherichia coli;Salmonella enterica sv Typhimurium)
[3] = tested on: FlhD (S. enterica);FlhC (E. coli) (Salmonella enterica sv Typhimurium;Escherichia coli)
[4] = tested on: FlhD (S. enterica);FlhC (S. enterica) (Salmonella enterica sv Typhimurium;Salmonella enterica sv Typhimurium)

PflgAB promoter PCR product gave a binding signal [1] of -1570, a binding signal [2] of -784 and a binding signal [3] of -1120. For the same substance, the binding signal [4] was -906.
